The values that follow come from patent US20190359693A1.

Some results are limits rather than exact numbers.

What all share (assay): cell-based or functional assay
Test [1] has as its target hemagglutinin (HA) of influenza B/Harbin/7/94 (Yamagata) (influenza B virus).
Test [2] deals with hemagglutinin (HA) of influenza B/Lee/40 (Old) (influenza B virus) (UniProt P03460).
For test [3], the target named is hemagglutinin (HA) of influenza A/New Caledonia/20/99 (H1N1) (influenza A virus A/New Caledonia/20/99 (H1N1)).
The target in test [4] is hemagglutinin (HA) of influenza A/Vietnam/1194/04 (H5N1) (influenza A virus A/Vietnam/1194/04 (H5N1)).
Test [5] addresses hemagglutinin (HA) of influenza A/New York/107/03 (PR8) (influenza A virus A/New York/107/03 (PR8)).
The target of test [6] is hemagglutinin (HA) of influenza A/Brisbane/10/07 (H3N2) (influenza A virus A/Brisbane/10/07 (H3N2)).

Sequence of hemagglutinin (HA) of influenza B/Lee/40 (Old) (influenza B virus) (P03460 16-584 limits assumed): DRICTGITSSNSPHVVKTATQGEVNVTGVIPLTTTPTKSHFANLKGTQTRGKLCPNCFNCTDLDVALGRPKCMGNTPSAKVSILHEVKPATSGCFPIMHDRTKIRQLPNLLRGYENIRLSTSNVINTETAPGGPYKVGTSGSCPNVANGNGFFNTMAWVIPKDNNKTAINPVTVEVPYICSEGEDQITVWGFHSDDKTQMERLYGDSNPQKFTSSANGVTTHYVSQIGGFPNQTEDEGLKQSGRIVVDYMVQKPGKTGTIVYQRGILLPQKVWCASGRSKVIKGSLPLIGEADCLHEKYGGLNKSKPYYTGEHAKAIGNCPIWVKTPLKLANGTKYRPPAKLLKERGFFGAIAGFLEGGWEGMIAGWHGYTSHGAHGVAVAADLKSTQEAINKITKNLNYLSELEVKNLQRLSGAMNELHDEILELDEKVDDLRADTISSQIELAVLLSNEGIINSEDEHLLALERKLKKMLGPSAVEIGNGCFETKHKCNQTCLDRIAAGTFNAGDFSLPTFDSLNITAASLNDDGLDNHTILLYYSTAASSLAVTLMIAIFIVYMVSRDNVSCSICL

B1: SD3101 (VHH)
VHH: EVQLVESGGGLVQPGGSLRLSCAISGLSLDTYAVGWFRQAPGKEREGVSCISSGHGSTYYADSVKGRFTISTDNSKNTLYLQMNSLRAEDTAVYYCATESRYYCSDNWPAPQRYIYWGQGTLVTVSS
In the case of B1, the VNA IC50 in test [1] and in test [2] was over 1000 nM in each case.

B2: SD3104 (VHH)
VHH: EVQLVESGGGLVQPGGSLRLSCAISGLSLDTYAVGWFRQAPGKEREGVSCISSGHGNTYYADSVKGRFTISTDNSKNTLYLQMNSLRAEDTAVYYCATESRYYCSDNWPAPQRYIYWGQGTLVTVSS
As to B2, the VNA IC50 in test [1] and in test [2] was over 1000 nM each time.

B3: SD3103 (VHH)
VHH: EVQLVESGGGLVQPGGSLRLSCAISGLSLDTYAVGWFRQAPGKEREGVSCISSGHGDTYYADSVKGRFTISTDNSKNTLYLQMNSLRAEDTAVYYCATESRYYCSDNWPAPQRYIYWGQGTLVTVSS
Consider B3, for which the VNA IC50 in test [1] and in test [2] was over 1000 nM in each case.

B4: SD3102 (VHH)
VHH: EVQLVESGGGLVQPGGSLRLSCAISGLSLDTYAVGWFRQAPGKEREGVSCISSGHGQTYYADSVKGRFTISTDNSKNTLYLQMNSLRAEDTAVYYCATESRYYCSDNWPAPQRYIYWGQGTLVTVSS
B4: the VNA IC50 in test [1] and in test [2] was over 1000 nM each time.

B5: SD3014 (VHH)
VHH: EVQLVESGGGVVQPGGSLRLSCAASISIFDIYAMDWYRQAPGKQRELVAVSFRDGSTYYADSVKGRFTISRDNSKNTLYLQMNSLRAEDTAVYLCHVSLYRDPLGVAGGMGVYWGKGALVTVSS
For the molecule B5, the VNA IC50 in test [3] stood at 3 nM; in test [4], 11 nM.

B6: SD3015 (VHH)
VHH: EVQLVESGGGVVQPGGSLRLSCAASISIFDIYAMDWYRQAPGKQRELVSVSFRDGSTYYADSVKGRFTISRDNSKNTLYLQMNSLRAEDTAVYLCHVSLYRDPLGVAGGMGVYWGKGALVTVSS
Turning to B6, the VNA IC50 in test [3] was determined as 3 nM; in test [4] it was 6 nM.

B7: SD3017 (VHH)
VHH: EVQLVESGGGVVQPGGSLRLSCAASISIFDIYAMHWYRQAPGKQRELVATSFRDGSTYYADSVKGRFTISRDNSKNTLYLQMNSLRAEDTAVYLCHVSLYRDPLGVAGGMGVYWGKGALVTVSS
As to B7, the VNA IC50 in test [3] is 4 nM; in test [4], 11 nM.

B8: SD3016 (VHH)
VHH: EVQLVESGGGVVQPGGSLRLSCAASISIFDIYAMDWYRQAPGKQRELVAVSFRDGSTYYADSVKGRFTISRDNSKNTLYLQMNSLRPEDTAVYLCHVSLYRDPLGVAGGMGVYWGKGALVTVSS
Turning to B8, the VNA IC50 amounted to 3 nM in test [3] and 8 nM in test [4].

B9: SD3041 (VHH)
VHH: EVQLVESGGGLVQPGGSLRLSCAASGRTLSIYSMSWFRQAPGKEREFVSAIGWNSGRTYYADSVKGRFTISRDNSKNTLYLQMNSLRAEDTAVYYCAAAKGPLRLSSQADYWGQGTQVTVSS
Regarding B9, the VNA IC50 in test [5] is over 1000 nM.

B10: SD3043 (VHH)
VHH: EVQLVESGGGLVQPGGSLRLSCAASGRTLSIYSMSWFRQAPGKEREFVATIGWNSGRTYYADSVKGRFTISRDNSKNTLYLQMNSLRAEDTAVYYCAAAKGPLRLSSQADYWGQGTQVTVSS
Regarding B10, in test [5], the VNA IC50 was over 1000 nM.

B11: SD3042 (VHH)
VHH: EVQLVESGGGLVQPGGSLRLSCAASGRTLSIYSMSWFRQAPGKEREFVSTIGWNSGRTYYADSVKGRFTISRDNSKNTLYLQMNSLRAEDTAVYYCAAAKGPLRLSSQADYWGQGTQVTVSS
B11 returned a VNA IC50 in test [5] of over 1000 nM.

B12: SD3046 (VHH)
VHH: EVQLVESGGGLVQAGGSLRLSCAASGRTLSIYSMSWFRQAPGKEREFVSTIGWNSGRTYYADSVKGRFTISRDNSKNTLYLQMNSLRAEDTAVYYCAAAKGPLRLSSQADYWGQGTQVTVSS
Regarding B12, the VNA IC50 in test [5] is over 1000 nM.

B13: SD3068 (VHH)
VHH: EVQLVESGGGLVQPGGSLRLSCAASGRTLSIYSMGWFRQAPGKEREFVSTIGWNSGRTFYPDSLKGRFTISRDNSKNTLYLQMNSLRAEDTAVYYCAAAKGPLRLSSQADYWGQGTLVTVSS
On to B13, for which the VNA IC50 in test [6] came to 4 nM; in test [5] it was 26 nM.

B14: SD3044 (VHH)
VHH: EVQLVESGGGLVQPGGSLRLSCAASGRTLSIYSMSWFRQAPGKEREFVSTIGWNSGRTYYADSVKGRFTISRDNARNTLYLQMNSLRAEDTAVYYCAAAKGPLRLSSQADYWGQGTQVTVSS
The molecule B14 yielded a VNA IC50 in test [5] of over 1000 nM.

B15: SD3048 (VHH)
VHH: EVQLVESGGGLVQAGGSLRLSCAASGRTLSIYSMSWFRQAPGKEREFVSTIGWNSGRTYYADSVKGRFTISRDNARNTLYLQMNSLRAEDTAVYYCAAAKGPLRLSSQADYWGQGTQVTVSS
In test [5], B15 yielded a VNA IC50 of 858 nM.

B16: SD3047 (VHH)
VHH: EVQLVESGGGLVQAGGSLRLSCAASGRTLSIYSMSWFRQAPGKEREFVATIGWNSGRTYYADSVKGRFTISRDNSKNTLYLQMNSLRAEDTAVYYCAAAKGPLRLSSQADYWGQGTQVTVSS
In test [5], B16 yielded a VNA IC50 of over 1000 nM.

B17: SD3067 (VHH)
VHH: EVQLVESGGGLVQPGGSLRLSCAASGRTLSIYSMGWFRQAPGKEREFVATIGWNSGRTFYPDSLKGRFTISRDNSKNTLYLQMNSLRAEDTAVYYCAAAKGPLRLSSQADYWGQGTLVTVSS
For the molecule B17, the figures for the VNA IC50 in test [6] and in test [5] were 3 nM and 16 nM, respectively.

B18: SD3045 (VHH)
VHH: EVQLVESGGGLVQAGGSLRLSCAASGRTLSIYSMSWFRQAPGKEREFVSAIGWNSGRTYYADSVKGRFTISRDNSKNTLYLQMNSLRAEDTAVYYCAAAKGPLRLSSQADYWGQGTQVTVSS
The molecule B18 showed a VNA IC50 in test [5] of over 1000 nM.

B19: SD3023 (VHH)
VHH: EVQLLESGGGLVQAGGSLRLSCAASGRTYAMSWFRQAPGKEREFVSHINALGTRTYYADSVKGRFTISRDNSKNTLYLQMNSLRPEDTAVYYCTAQGQWRAAPVAVAAEYEFWGQGTQVTVSS
For B19, the VNA IC50 in test [6] is 64 nM; in test [5], 16 nM.

B20: SD3025 (VHH)
VHH: EVQLLESGGGLVQPGGSLRLSCAASGRTYAMSWFRQAPGKEREFVAHINALGTRTYYADSVKGRFTISRDNSKNTLYLQMNSLRAEDTAVYYCTAQGQWRAAPVAVAAEYEFWGQGTQVTVSS
As for B20, the VNA IC50 was 160 nM in test [6] and 13 nM in test [5].

B21: SD3024 (VHH)
VHH: EVQLLESGGGLVQPGGSLRLSCAASGRTYAMSWFRQAPGKEREFVSHINALGTRTYYADSVKGRFTISRDNSKNTLYLQMNSLRAEDTAVYYCTAQGQWRAAPVAVAAEYEFWGQGTQVTVSS
Take B21: the VNA IC50 in test [6] was found to be 80 nM; in test [5] it was 20 nM.

B22: SD3095 (VHH)
VHH: EVQLLESGGGLVQPGGSLRLSCAASGRTYAMGWFRQAPGKEREFVAHINALGTRTYYADSVKGRFTISRDNSKNTLYLQMNSLRPEDTAVYYCTAQGQWRAAPVAVAAEYEFWGQGTLVTVSS
As for B22, the VNA IC50 in test [6] came to 8 nM; in test [5] it was 6 nM.

B23: SD3096 (VHH)
VHH: EVQLLESGGGLVQPGGSLRLSCAASGRTYAMGWFRQAPGKEREFVAHINALGTRTYYADSVKGRFTISRDNSKNTVYLQMNSLRPEDTAVYYCTAQGQWRAAPVAVAAEYEFWGQGTLVTVSS
With B23, the figures for the VNA IC50 in test [6] and in test [5] were 26 nM and 5 nM, respectively.

B24: SD3027 (VHH)
VHH: EVQLLESGGGLVQAGGSLRLSCAASGRTYAMSWFRQAPGKEREFVSAINALGTRTYYADSVKGRFTISRDNSKNTLYLQMNSLRPEDTAVYYCTAQGQWRAAPVAVAAEYEFWGQGTQVTVSS
With B24, the VNA IC50 turned out to be 16 nM in test [6] and 6 nM in test [5].

B25: SD3028 (VHH)
VHH: EVQLLESGGGLVQAGGSLRLSCAASGRTYAMSWFRQAPGKEREFVAHINALGTRTYYADSVKGRFTISRDNSKNTLYLQMNSLRPEDTAVYYCTAQGQWRAAPVAVAAEYEFWGQGTQVTVSS
For the molecule B25, the figures for the VNA IC50 in test [6] and in test [5] were 101 nM and 26 nM, respectively.

B26: SD3094 (VHH)
VHH: EVQLLESGGGLVQPGGSLRLSCAASGRTYAMGWFRQAPGKEREFVAHINALGTRTYYADSVKGRFTISRDNSKNTLYLQMNSLRAEDTAVYYCTAQGQWRAAPVAVAAEYEFWGQGTLVTVSS
As for B26, the VNA IC50 stood at 8 nM in test [6] and 6 nM in test [5].

B27: SD3026 (VHH)
VHH: EVQLLESGGGLVQPGGSLRLSCAASGRTYAMSWFRQAPGKEREFVSAINALGTRTYYADSVKGRFTISRDNSKNTLYLQMNSLRAEDTAVYYCTAQGQWRAAPVAVAAEYEFWGQGTQVTVSS
B27: the VNA IC50 in test [6] was 16 nM; in test [5], 8 nM.

B28: SD3098 (VHH)
VHH: EVQLLESGGGLVQPGGSLRLSCAASGRTYAMGWFRQAPGKEREFVAAINALGTRTYYADSVKGRFTISRDNSKNTLYLQMNSLRPEDTAVYYCTAQGQWRAAPVAVAAEYEFWGQGTLVTVSS
Regarding B28, the values for the VNA IC50 in test [6] and in test [5] were 4 nM and 16 nM, respectively.
